Results on 1 molecule are retold here after patent US12552876.

The target in the experiment is HSA-Fuc-GM1 conjugate (human). Briefly: SPR (Biacore X), HSA-Fuc-GM1 conjugate amine-coupled to CM5 chip, antibody as analyte, bivalent analyte model. On the technique in general: Surface plasmon resonance follows binding to a sensor surface in real time, without labels.
Sequence of HSA-Fuc-GM1 conjugate (human) (P02768 25-609): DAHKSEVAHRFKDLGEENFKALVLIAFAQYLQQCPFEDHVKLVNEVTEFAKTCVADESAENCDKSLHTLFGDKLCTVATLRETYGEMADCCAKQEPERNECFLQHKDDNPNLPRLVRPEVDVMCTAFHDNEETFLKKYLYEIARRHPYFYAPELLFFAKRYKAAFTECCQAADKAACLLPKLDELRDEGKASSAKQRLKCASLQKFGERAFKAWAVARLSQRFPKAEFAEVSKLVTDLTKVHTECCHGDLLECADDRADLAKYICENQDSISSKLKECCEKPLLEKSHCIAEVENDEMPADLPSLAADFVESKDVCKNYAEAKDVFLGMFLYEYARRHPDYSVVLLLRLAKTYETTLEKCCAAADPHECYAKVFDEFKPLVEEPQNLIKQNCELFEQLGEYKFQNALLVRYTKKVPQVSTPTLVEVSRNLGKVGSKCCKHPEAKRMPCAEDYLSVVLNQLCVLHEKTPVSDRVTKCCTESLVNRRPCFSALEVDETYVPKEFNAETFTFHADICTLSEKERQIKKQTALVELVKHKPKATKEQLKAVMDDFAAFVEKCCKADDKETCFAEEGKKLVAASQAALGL

B1: mAb FL134.33 (antibody, V domains shown)
VH: AVQLQESGPDLVKPSQSLSLTCTVTGYSITSGYSWHWIRQFPGNKLEWVGYIHYRGNTNYNPSLKSRVSITRDTYKNQFFLQLNSLTTEDTATYYCAQEPVRNYAMDFWGQGTSVTVSS
VL: DIVMTQSPDTLSVTPGDRVSLSCRASQSISDDLHWYQQKSHESPRLLIKYVSQSISGIPSRFSGSGSRSDFTLTINSVEPEDVGLYYCQNGHGFPPTFGGGTKLEIK
For the molecule B1, the Kd was determined as 58 µM; the off-rate constant (koff) (usually a measure of how fast the partners let go of each other) stood at 0.117 s⁻¹; the on-rate constant (kon) (as a rule, a measure of how fast the partners come together) stood at 2010 M⁻¹ s⁻¹.
